Measured values: a protein production outcome set (Wang et al. 2014)

Experiment: label from the status in PepcDB records

MQPWTQIYTPLGSLWLSALAAAIPILFFFVALAVLRMKGHVAAAVTLALALAVAIFAYGMPAQQAFAAAGFGFAYGLWPIAWIIVTAVFLYKIVVKTGQFDVIRASVLSITDDQRLQMLLIGFAFGAFLEGAAGFGAPVAITAALLVGLGFNPLYAAGLCLIANTAPVAFGAMGIPIIVAGQVTGIDPMHIGAMAGRQLPLLSLAVPFWLVFMMDGAKGVRETWPAALVVGGSFAVTQYFTSNHIGPELPDITSALVSLISLAAFLRVWQPRSASQAAGGTVAAGGTVAMAGFGGGMGAPASRKASPYTFGQTVRAWAPFGILTAIVTVWSLAPFKALFAGNGALAGTVLKFKVPMLDQLVIKSAPIVASPKPYEAVLKLDLLSAVGTAILLTAIISAVLLRMKPSDAITTFKETLLELRRPIASIGLVLAFAFVANYSGMSSTLALLLAGTGAAFPFFSPLLGWLGVFLTGSDTSSNALFCSLQHTTAHQIGVSDTLLVAANTTGGVTGKMISPQSIAVACAATGLVGKESELFRFTVKHSLLFAAIVGVITMIQAYWLTGMIPG
protein production: failed

MTNLGTAKNFWDATLYQDKHSFVWQYGEDLLQLLNPQPGEFILDLGCGTGQLTEKIAQSGAEVLGTDNAATMIEKARQNYPHLHFDVADARNFRVDKPLDAVFSNAMLHWVKEPEAAIASIHQALKSGGRFVAEFGGKGNIKYILEALYNALETLGIHNPQALNPWYFPSIGEYVNILEKQGFDVTYAALFNRPTTLAEGEFGMANWIQMFASAFLVGLTPDQQVQLIRKVEATLQDKLYHQESWTADYRRIRIVSIKAQ
protein production: not failed

MLHHVEINVDHLEESIAFWDWLLGELGYEDYQSWSRGKSYKHGKTYLVFVQTEDRFQTPTFHRKRTGLNHLAFHAASREKVDELTQKLKERGDPILYEDRHPFAGGPNHYAVFCEDPNRIKVEIVAP
protein production: not failed

MLDRLRFPHPWLSLTLFVMWQFLSDGISGGSIVLGLILAWIIPLMTQGFWPDPPTLLKAWKTPAYLLRVLWDIVVASVDVARLILSPRAPRPMFICYTLELTDPLAISILASTISLTPGTVSADVSDDNTLLLIHALDAEDEQEVIDTIRNRYEKPLLEMFQ
protein production: failed

MKMMDANEIISFIQNSTKSTPVKVYVKGELEGINFGESAKAFINGNTGVVFGEWSEIQTAIEENQSKIEDYVVENDRRNSAIPMLDLKNIKARIEPGAIIRDQVEIGDNAVIMMGASINIGSVIGEGTMIDMNVVLGGRATVGKNCHIGAGSVLAGVIEPPSAKPVVIEDDVVIGANAVVLEGVTVGKGPVVAAGAIVVNDVEPYTVVAGTPAKKIKDIDEKTKGKTEIKQELRQL
protein production: not failed

MKLTPKELDKLMLHYAGELAKKRKEKGIKLNYVEAVALISAHIMEEARAGKKTAAELMQEGRTLLKPDDVMDGVASMIHEVGIEAMFPDGTKLVTVHTPIEANGKLVPGELFLKNEDITINEGKKAVSVKVKNVGDRPVQIGSHFHFFEVNRCLDFDREKTFGKRLDIASGTAVRFEPGEEKSVELIDIGGNRRIFGFNALVDRQADNESKKIALHRAKERGFHGAKSDDNYVKTIKE
protein production: failed

MIFRQLFDPQSSTYTYLLADPASREALLIDPVFEQVRRDAALLDELGLRLVATVDTHVHADHVTGAWLLKQRTGSTIAISAASGAQGADRYLNDGDRCAFGARYLTVRATPGHTSGCISLVLDDESMAFTGDCLLIRGTGRTDFQQGDPRALYRAVHARLFTLPAACLLYPAHDYRGLTVTSVGEERRFNPRLGGDLSEDDFAGYMRNLGLAHPRQIDVAVPANLQCGVAANAPDALAAADWAPLVYTFAGFWEIDPQWLEDHLPAVQVVDVREPDEFAGPLGHLPGATPIPLGELAARTGELARDRPIVTVCRAGGRSAQATVILLKAGFDAVANLGGGMLRWRGEGRVVMDGRS
protein production: failed

MNLANIVQRGWEALGAGDFDTLVTDYVEKMIFIMPGQADVLKGRQAFRSALDNLGEILPPGFEITGLRQLEGENEIVSIVEWKSDKMIASQLSVLFKFEGDQIYEERWFVDTEQWKSVF
protein production: not failed

MQPELTKTPANFPLSPLGAVVILGDIPNPELLAIPLAPTPSTMFGPRGACLVAETGALWVSDTGHHRLLGWRKLPTTDSQPADWVIGQPDFYHEGQNAKGTPGRTTVSVPTGICVCGGGLAIADAWNHRVLIWHKIPEDSNVPADLVLGQRNFSENEPNRGKQSPDANTMHWPYGVAYHQGKLFVADTGNRRLLIWQQLPTENGQPADIVLGQPDMISRNENGGGSPTAGSMRWCHDIAFWDDNLVVTDAGNNRVMIWQGIPTENNAPCAVVLGQKSFDLVEMNQGVYFPSAGSLSMPYGVGATEDWLMVADTANSRLLGWRKRESILLLQGAIADGIIGQNSFQSKSENRHFGLPTRDSLNWCYGVKVCGSTAVISDSGNNRVLLWRFLLEHHHHHH
protein production: failed

MNPANGEVTSYWFPGTTSGILTRNGSMIHLLSITASVLHPDDPSLSERESVQVQQYRLSSLLAAVLLPVFGTLYSWADPQAVDPAWIRLALSGLLLGLFVGSYLSDRVCRNYVPLT
protein production: failed

METEYDQVLRSVAQVNIADQIGESDDVERDGNGVKVSCFTEVFDDVTIQFQIIRLAKQIYVWVGCNSAKFGSLYAAASTRPSNTVSVTSVLGGTSDNTGSGIARRLVLKTGLNIILACNIPKNNPLLEAKAEKVLIRKLIDLGYTMSKPVRAT
protein production: failed

MVLYFLSSIIIAPIKTGDKAPQVDECCLKTVSDLTFFTNNEKYIWPVPDFCVRMELLAFEAIPQLSKKIIEDIPGAYQGCPRMCKVKFKKNHLKGFTLDTIYAELGTTHVIDCIVTPRIEEQELMKTIMEEEDDDDVADVVVESWLKRHKEGRLIMFDELYQQDIQTLKITSSR
protein production: failed

MSESTAPSDTVLLRGGEVHSPADPFATAMVVERGQVAWVGSEGAADAFSAGVDEVVDLEGALVTPAFTDAHVHTTSTGLALTGLDLSGAPSLEAALALVRDFAAARPDDRVLLGHGWDTARWPGGRPPTRAELDEAADGRPLYLSRIDVHSAVVSTALLDLVPGITGRAGYLDGPLTRDAHHAVRGAALGAVSPAQRTEAQRAALAHAASLGIGSVHECAGPEISSEDDFTGLLRLAAEETGPRVVGYWAEWGEEGIDRARALGAVGAAGDLFVDGALGSHTACLHQPYSDAGHTGTAYLDDDAVAAHVIACTEAGLQAGFHAIGDAAVTSVVEGVRAAAEKVGLARVRAARHRVEHAEMLTPETIAAFAELGLTASVQPAFDALWGGADGMYAQRLGAERARTLNPFAALLRAGVPLAFGSDSPVTPLDPWGTVRAAAFHRTPEHRVSVRAAFTAHTRGGWRAIGRDDAGVLVPGAPADYAVWRTEELVVQAPDDRVARWSTDPRSGTPGLPDLTPGGDLPVCLRTVVGGRTVFVRPNE
protein production: failed

QHTLKQFAADSALTTTTPLCSEVPLFDINALGDWTYLGTSLPAKFAKLFASILHCIDDEYFLITPVEKVRVQVEDAPLLIVDFERAQPHSLLNVSTSIGTLHHNVDIKQMKLTDDSVYLPLERGLWGKLGRACYYNFVNEFNLSDLNEQ
protein production: not failed

MGTPVVWEGNIGNPPEHKSFPNGNNEPRQLLRLNVMFDNSIPDGSGGYKDRGGFWANVEWWHPDAERFAQLFSKGMRVVVTGRAIMDTWKDKETGDDVWALKVEANRVAILPHRVNQVTMTQSNNTGQRQNAQQNNRPERQQNSAQQPGQHTDDLSHYGNGFDDDIPVLEHHHHHH
protein production: not failed

MTKKVMIKGDIVDDQTAGFYQFFGMPAVSPSGVADILNDDSGDDDDDGDDEALEVDIASNGGDVFAASEIYTMLKNYAGNVTVNIQGLAASAASVIAMAGDHINISPTAQIMIHKAWSQPAGNADDLEHEASVLNGIDQSIASAYEAKTGMDQADLLQLMANETWLTASDAVDKGFADEIMFANDQQLQPVNAISHIPPKSAVNKLMNLIYKADKDKAKPSKKENTTNGQSAELRNSKLAILFEKNQKEAN
protein production: failed

MLDAAIKALTQILSPPMRSILWRSVGFALALIAVAAIGLQRLLSWAATSSELWAEAALGGFQTPLNILSWVLSIAAGLGIVVGAVFLMPAVTSLVAGIFVDEAAEHVERESYPHEAPGVALPIGLATWETVKTALLTILVYLVALPFLFVAGAGAIVFFVATAWLLGREYFELAAMRFRTAPEAKAMRRDNATTVFIGGLIIAAFVSIPIVNLATPLFGMAFMVHLHKRLSGSRPEVLAPDQRSMLR
protein production: failed

MDPCTGGNGCVHICQSENGTARCACHAGYQLPEDKNICEDINECAEGLSYCGHCCVNSMGSFTCACQTGFELGADRKQCYSNWQQSQPRLYLSLSDFFLLFPVHDYTLPGIELEIVNSCEKNNSVCSHHREHEIGAPRCSCNHGHQLDSDEKTCIDLDECENGEACCAQLCINYLGGYKCRCQEGFQITSNGCECDALDDDELEEEEEE
protein production: failed

MDSFMESLNRLKEAHEKEVLGLQNKLLELNSERCRDAQRVEELFAKNHQLREQQKALKENLRVLENRLRAGLCDRCMVTQELARKKQLELENAHLQSLQHLCILTNEMNGLREENKILKEEVKRLRSLGDKTAPQAWEGTSEPPSPLPLPSPRQASGPP
protein production: failed

FFSNAEVAERLAYPQLIEALRIGLAKPCSAPLRNCHALPAQASLLQMPVWQAGAGIGVKLVTVFPGNGARGLPAVAAVFALFDGEDGRPLALLEASELTARRTACSSALAADYLARDDARRLLVVGCGTLAAHMVRAHACVRDYRHIDIWGRDPAKAAALAARLREEGYPARAADGLRAAVEAADCVSCVTTSREALVRGAWLKPGVHLDLVGAFLPSMRETDVLAVARARVVVDTRAGALEEAGDLLQAIAEGAIGREAISTELRDLLSGAGRRGDPGEITLFKSVGYALEDLVAARRVV
protein production: failed

MPSYGNLGRLGGRHEYGVLVAMTSSAELDRVRWAHQLRSYRIASVLRIGVVGLMVAAMVVGTSRSEWPQQIVLIGVYAVAALWALLLAYSASRRFFALRRFRSMGRLEPFAFTAVDVLILTGFQLLSTDGIYPLLIMILLPVLVGLDVSTRRAAVVLACTLVGFAVAVLGDPVMLRAIGWPETIFRFALYAFLCATALMVVRIEERHTRSVAGLSALRAELLAQTMTASEVLQRRIAEAIHDGPLQDVLAARQELIELDAVTPGDERVGRALAGLQSASERLRQATFELHPAVLEQVGLGPAVKQLAASTAQRSGIKISTDIDYPIRSGIDPIVFGVVRELLSNVVRHSGATTASVRLGITDEKCVLDVADDGVGVTGDTMARRLGEGHIGLASHRARVDAAGGVLVFLATPRGTHVCVELPLKR
protein production: failed

VKRFWENVGKPNDTTDGRGTTSLAMTPISQTPGLLAEAMVDLGAIEHNVRVLREHAGHAQLMAVVKADGYGHGATRVAQTALGAGAAELGVATVDEALALRADGITAPVLAWLHPPGIDFGPALLADVQVAVSSLRQLDELLHAVRRTGRTATVTVKVDTGLNRNGVGPAQFPAMLTALRQAMAEDAVRLRGLMSHMVYADKPDDSINDVQAQRFTAFLAQAREQGVRFEVAHLSNSSATMARPDLTFDLVRPGIAVYGLSPVPALGDMGLVPAMTVKCAVALVKSIRAGEGVSYGHTWIAPRDTNLALLPIGYADGVFRSLGGRLEVLINGRRCPGVGRICMDQFMVDLGPGPLDVAEGDEAILFGPGIRGEPTAQDWADLVGTIHYEVVTSPRGRITRTYREAENR
protein production: not failed
